The text below walks through data of US20240092931A1 (JANUX THERAPEUTICS, published 2024).

By EC50 is commonly meant the midpoint of the concentration-response curve. High values mean a need for much substance, low ones an effect from little substance. One may read the Kd as the equilibrium constant for the complex coming apart. A higher Kd goes with weaker binding. The koff is a measure of how fast the partners let go of each other. Broadly, the kon is a measure of how fast the partners come together.

For assay [1], the target named is T1, Human TROP2-Biotin (human, UniProt P09758 27-274, biotinylated (site not stated)).
T1 construct: The text calls the captured antigens 'biotinylated peptides'
T1 sequence (looked up): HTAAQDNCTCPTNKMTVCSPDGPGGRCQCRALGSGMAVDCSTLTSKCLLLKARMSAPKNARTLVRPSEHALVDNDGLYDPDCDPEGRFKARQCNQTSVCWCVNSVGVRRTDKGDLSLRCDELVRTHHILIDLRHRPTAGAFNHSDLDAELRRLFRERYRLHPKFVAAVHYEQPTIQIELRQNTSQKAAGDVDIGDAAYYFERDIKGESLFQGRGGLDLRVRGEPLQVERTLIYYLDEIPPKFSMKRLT
The experiment in a line: ELISA; 1 nM Trop2-biotin immobilized (captured on neutravidin-coated plate), Ab-3 titrated, bound complex detected with a secondary antibody, OD 450 nm. On the technique in general: In an ELISA, binding on a coated surface is turned into a signal by an enzyme label.

Assay [2] has as its target T1, Human TROP2-Biotin. Kind of assay: BLI (Octet): 10 nM TROP2-biotin loaded on sensor, Ab-3 at 6.25-50 nM, pH 7.4.
In assay [3] the target is T1, Human TROP2-Biotin. The experiment in a line: BLI (Octet): 10 nM Human TROP2-Biotin loaded on sensor, Ab at 6.25-50 nM, pH 7.4. A general note: Biolayer interferometry detects binding as a change in optical thickness at a sensor tip.
Assay [4] addresses T1, Human TROP2-Biotin. Kind of assay: TROP2 ELISA; TROP2-biotin captured on neutravidin-coated plate, antibody titrated, detected with a secondary antibody, OD 450 nm.
Source text: A secondary antibody was used to detect bound polypeptide complex. A secondary antibody was used to detect bound polypeptide complex.

B1: TROP2 polypeptide complex Ab-3 (bispecific antibody)
light: DIQLTQSPSSLSASVGDRVSITCKASQDVSIAVAWYQQKPGKAPKLLIYSASYRYTGVPDRFSGSGSGTDFTLTISSLQPEDFAVYYCQQHYITPLTFGAGTKVEIKRTVAAPSVFIFPPSDEQLKSGTASVVCLLNNFYPREAKVQWKVDNALQSGNSQESVTEQDSKDSTYSLSSTLTLSKADYEKHKVYACEVTHQGLSSPVTKSFNRGEC
heavy: QTVVTQEPSLTVSPGGTVTLTCRSSTGAVTTSNYANWVQQKPGQAPRGLIGGTNKRAPGTPARFSGSLLGGKAALTLSGVQPEDEAEYYCALWYSNLWVFGGGTKLTVLGGGGSGGGGSGGGGSEVQLVESGGGLVQPGGSLKLSCAASGFTFNTYAMNWVRQAPGKGLEWVARIRSKYNNYATYYADSVKDRFTISRDDSKNTAYLQMNNLKTEDTAVYYCVRHGNFGNSYVSWFAYWGQGTLVTVSSGGGGSQVQLQQSGSELKKPGASVKVSCKASGYTFTNYGMNWVKQAPGQGLKWMGWINTYTGEPTYTDDFKGRFAFSLDTSVSTAYLQISSLKADDTAVYFCARGGFGSSYWYFDVWGQGSLVTVSSASTKGPSVFPLAPSSKSTSGGTAALGCLVKDYFPEPVTVSWNSGALTSGVHTFPAVLQSSGLYSLSSVVTVPSSSLGTQTYICNVNHKPSNTKVDKKVEPKSC
notes: Anti-CD3 scFv fused to the N-terminus of the anti-TROP2 Fab heavy chain
For the molecule B1, a half-maximal effect in assay [1] (EC50) was put at 0.17 nM. Also, in assay [2], the Kd turned out to be 1.12 nM, the koff stood at 0.000223 s⁻¹ and the kon came out at 199000 M⁻¹ s⁻¹.

B2: TROP2 TCE polypeptide complex Ab-1 (bispecific antibody)
light: B1 light
heavy: not shown
notes: as for B1
In turn, B2 had a dissociation constant Kd in assay [3] of 0.466 nM. In assay [4], this molecule gave an EC50 of 0.08 nM.

B3: Ab-2 (bispecific antibody)
light: not shown
heavy: QVQLQQSGSELKKPGASVKVSCKASGYTFTNYGMNWVKQAPGQGLKWMGWINTYTGEPTYTDDFKGRFAFSLDTSVSTAYLQISSLKADDTAVYFCARGGFGSSYWYFDVWGQGSLVTVSSASTKGPSVFPLAPSSKSTSGGTAALGCLVKDYFPEPVTVSWNSGALTSGVHTFPAVLQSSGLYSLSSVVTVPSSSLGTQTYICNVNHKPSNTKVDKKVEPKSC
notes: Anti-CD3 scFv fused to the N-terminus of the anti-TROP2 Fab light chain
B3 came in with a Kd in assay [3] of 0.687 nM. This molecule also had an EC50 in assay [4] of 0.09 nM.
